Where “and” joins values, the source holds several entries; their conditions need not be identical. Equal values may be shown once.

What all share (assay): plate binding assay (luminescent)
The test system of one series is AGO2 full-length (human). The settings on record: Ca2+ and Mg2+; 3'-biotinylated cytidine (bis)phosphate ligated; ELISA plate-immobilized protein, BSA block; PBS with or without 0.5 mM MgCl2, or HBSS with 1.26 mM Ca2+ and 0.9 mM Mg2+; neutral pH; 2 h at 37 C or overnight ….
The subject of the next series is poly-ornithine. The settings on record: miRNA species not given; 3'-biotinylated cytidine (bis)phosphate ligated; ELISA plate-immobilized protein, BSA block; PBS with or without 0.5 mM MgCl2, or HBSS with 1.26 mM Ca2+ and 0.9 mM Mg2+; neutral pH; 2 h at 37 C or overnight.
The target in a further series is sNRP1 (human) (UniProt O14786). Particulars: 3'-biotinylated cytidine (bis)phosphate ligated, ELISA plate-immobilized protein, BSA block, PBS with or without 0.5 mM MgCl2, or HBSS with 1.26 mM Ca2+ and 0.9 mM Mg2+, neutral pH, 2 h at 37 C or overnight ….
Chain of sNRP1 (human) (O14786 22-640): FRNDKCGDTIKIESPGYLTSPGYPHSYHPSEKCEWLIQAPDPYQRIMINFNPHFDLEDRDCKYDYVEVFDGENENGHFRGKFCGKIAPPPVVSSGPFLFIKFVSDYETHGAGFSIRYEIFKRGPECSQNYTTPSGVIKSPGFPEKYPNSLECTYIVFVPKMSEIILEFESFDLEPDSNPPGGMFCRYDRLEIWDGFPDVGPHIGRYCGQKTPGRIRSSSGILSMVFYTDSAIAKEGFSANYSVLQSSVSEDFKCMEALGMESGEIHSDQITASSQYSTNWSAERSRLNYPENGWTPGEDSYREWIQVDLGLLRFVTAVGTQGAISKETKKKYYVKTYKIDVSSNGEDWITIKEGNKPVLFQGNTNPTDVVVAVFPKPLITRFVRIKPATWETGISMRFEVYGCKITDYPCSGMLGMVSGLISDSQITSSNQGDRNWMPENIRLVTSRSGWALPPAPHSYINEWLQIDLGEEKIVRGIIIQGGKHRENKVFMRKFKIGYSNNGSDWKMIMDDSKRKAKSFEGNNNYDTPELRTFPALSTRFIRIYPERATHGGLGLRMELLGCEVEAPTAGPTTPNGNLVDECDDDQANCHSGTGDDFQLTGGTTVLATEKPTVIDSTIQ
For the next series, the system named is NRP1-Fc (rat). Particulars: 3'-biotinylated cytidine (bis)phosphate ligated; ELISA plate-immobilized protein, BSA block; PBS with or without 0.5 mM MgCl2, or HBSS with 1.26 mM Ca2+ and 0.9 mM Mg2+; neutral pH; 2 h at 37 C or overnight ….

With miR-20a, the equilibrium dissociation constant (Kd) was determined as 7270 pM in the series with AGO2 full-length (human) and 6670 pM in the series on poly-ornithine.
Take miR-138: the dissociation constant Kd with sNRP1 (human) (0.9 mM Mg2+, 1.2 mM Ca2+ (1.26 in Methods)) is 772 pM; with sNRP1 (human), 348 pM.
Consider miR-331, for which the dissociation constant (Kd) with NRP1-Fc (rat) stood at 911 pM. This counts as sub-nanomolar.
Regarding miR-422, the dissociation constant Kd with sNRP1 (human) was 344 pM and 138 pM.
